What was measured:
Assay in all cases: holdup assay
Parameters in all cases: key: below the threshold = too weak to quantify, mostly under pKd 3.1 to 4
DLG2_2, Q15700 = target: DLG2_2, Q15700
PTPN3, P26045 = target: PTPN3, P26045
RADIL, Q96JH8 = target: T1, RADIL, Q96JH8
T1 sequence (Q96JH8 971-1071, limits assumed, looked up): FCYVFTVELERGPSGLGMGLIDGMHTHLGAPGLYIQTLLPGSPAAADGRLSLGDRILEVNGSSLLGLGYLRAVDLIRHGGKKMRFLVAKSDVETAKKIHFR

Inadl_3, Q8NI35 = target: Inadl_3, Q8NI35
Inadl_8, Q8NI35 = target: Inadl_8, Q8NI35
Inadl_8, Q8NI35, sequence (Q8NI35 1425-1530): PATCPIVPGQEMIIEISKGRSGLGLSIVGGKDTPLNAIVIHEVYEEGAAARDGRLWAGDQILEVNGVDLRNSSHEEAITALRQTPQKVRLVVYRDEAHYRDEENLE

GRIP2_6, Q9C0E4 = target: GRIP2_6, Q9C0E4
GRIP2_6, Q9C0E4, sequence (Q9C0E4 648-740): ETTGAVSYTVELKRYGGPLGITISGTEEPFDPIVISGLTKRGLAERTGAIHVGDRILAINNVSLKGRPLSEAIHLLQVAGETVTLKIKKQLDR

SCRIB_1, Q14160 = target: SCRIB_1, Q14160
SCRIB_1, Q14160, sequence (Q14160 718-814): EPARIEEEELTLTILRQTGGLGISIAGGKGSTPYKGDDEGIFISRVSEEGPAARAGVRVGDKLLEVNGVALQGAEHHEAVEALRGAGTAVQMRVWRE

LIMK2, P53671 = target: LIMK2, P53671
LIMK2, P53671, sequence (P53671 143-248): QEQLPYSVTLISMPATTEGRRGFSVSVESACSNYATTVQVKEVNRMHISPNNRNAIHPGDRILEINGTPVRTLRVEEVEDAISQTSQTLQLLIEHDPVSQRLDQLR

MAGI2_6, Q86UL8 = target: MAGI2_6, Q86UL8
MAGI2_6, Q86UL8, sequence (Q86UL8 1141-1229): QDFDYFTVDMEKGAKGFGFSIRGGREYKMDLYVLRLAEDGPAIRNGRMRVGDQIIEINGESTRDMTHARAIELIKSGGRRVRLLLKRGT

NHERF4_1, Q86UT5-2 = target: NHERF4_1, Q86UT5-2
NHERF4_1, Q86UT5-2, sequence (Q86UT5 other isoform, or with tags, fused parts or gaps): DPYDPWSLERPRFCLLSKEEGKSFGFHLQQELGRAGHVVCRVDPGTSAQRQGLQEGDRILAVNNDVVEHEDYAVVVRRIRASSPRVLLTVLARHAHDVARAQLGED

SNX27, Q96L92 = target: SNX27, Q96L92
DLG4_1, P78352 = target: DLG4_1, P78352
DLG4_1, P78352, sequence (P78352 62-152): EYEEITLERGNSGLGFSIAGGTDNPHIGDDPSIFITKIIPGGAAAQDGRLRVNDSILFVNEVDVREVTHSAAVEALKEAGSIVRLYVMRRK

GIPC2, Q8TF65 = target: GIPC2, Q8TF65
GIPC2, Q8TF65, sequence (Q8TF65 112-203): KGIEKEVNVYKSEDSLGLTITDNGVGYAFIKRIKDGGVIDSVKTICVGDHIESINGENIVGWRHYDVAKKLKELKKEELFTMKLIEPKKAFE

FRMPD1, Q5SYB0 = target: T2, FRMPD1, Q5SYB0
T2 sequence (Q5SYB0 52-145, limits assumed, looked up): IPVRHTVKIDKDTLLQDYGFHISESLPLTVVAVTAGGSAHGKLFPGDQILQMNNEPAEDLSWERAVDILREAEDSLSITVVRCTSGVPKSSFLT

MAGI1_1, Q96QZ7 = target: MAGI1_1, Q96QZ7
MAGI1_1, Q96QZ7, sequence (Q96QZ7 1-106): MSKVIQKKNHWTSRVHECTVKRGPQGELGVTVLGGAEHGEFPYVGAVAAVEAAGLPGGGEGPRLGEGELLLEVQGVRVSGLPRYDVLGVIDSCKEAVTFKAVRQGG

LIN7A, O14910 = target: T3, LIN7A, O14910
T3 sequence (O14910 103-200, limits assumed, looked up): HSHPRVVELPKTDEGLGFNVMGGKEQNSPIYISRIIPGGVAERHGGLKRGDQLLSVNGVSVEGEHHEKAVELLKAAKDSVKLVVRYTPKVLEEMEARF

FRMPD3, Q5JV73 = target: FRMPD3, Q5JV73
FRMPD3, Q5JV73, sequence (Q5JV73 12-100): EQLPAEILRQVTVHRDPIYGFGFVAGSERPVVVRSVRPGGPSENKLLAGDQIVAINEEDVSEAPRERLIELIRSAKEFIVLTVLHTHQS

CARD11, Q9BXL7 = target: T4, CARD11, Q9BXL7
T4 sequence (Q9BXL7 662-765, limits assumed, looked up): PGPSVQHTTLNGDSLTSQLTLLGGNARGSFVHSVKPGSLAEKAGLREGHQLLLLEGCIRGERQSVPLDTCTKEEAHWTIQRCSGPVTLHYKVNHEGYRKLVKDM

LNX2_3, Q8N448 = target: T5, LNX2_3, Q8N448
T5 sequence (Q8N448 463-564, limits assumed, looked up): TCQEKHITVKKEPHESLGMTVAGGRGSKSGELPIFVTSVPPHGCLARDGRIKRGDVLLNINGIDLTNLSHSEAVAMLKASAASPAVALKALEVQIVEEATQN

Inadl_10, Q8NI35 = target: Inadl_10, Q8NI35
Inadl_10, Q8NI35, sequence (Q8NI35 1673-1763): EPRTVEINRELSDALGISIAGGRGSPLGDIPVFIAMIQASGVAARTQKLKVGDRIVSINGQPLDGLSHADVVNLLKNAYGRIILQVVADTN

MAST2, Q6P0Q8 = target: MAST2, Q6P0Q8
MAST2, Q6P0Q8, sequence (Q6P0Q8 1099-1202): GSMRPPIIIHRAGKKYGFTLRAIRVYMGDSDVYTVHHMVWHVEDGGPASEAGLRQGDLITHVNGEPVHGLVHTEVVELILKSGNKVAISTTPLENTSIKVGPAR

LDB3, O75112 = target: LDB3, O75112
LDB3, O75112, sequence (O75112 1-94): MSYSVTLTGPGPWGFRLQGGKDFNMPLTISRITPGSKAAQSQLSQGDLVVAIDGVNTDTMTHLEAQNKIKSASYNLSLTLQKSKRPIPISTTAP

MPP2, Q14168 = target: T6, MPP2, Q14168
T6 sequence (Q14168 180-250, limits assumed, looked up): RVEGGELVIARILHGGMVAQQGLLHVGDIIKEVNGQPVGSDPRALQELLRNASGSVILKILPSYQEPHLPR

GRASP, Q7Z6J2 = target: GRASP, Q7Z6J2
GRASP, Q7Z6J2, sequence (Q7Z6J2 96-193): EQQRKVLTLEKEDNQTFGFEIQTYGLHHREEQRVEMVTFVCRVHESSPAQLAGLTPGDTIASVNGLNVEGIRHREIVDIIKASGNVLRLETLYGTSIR

PARD3B_1, Q8TEW8 = target: T7, PARD3B_1, Q8TEW8
T7 sequence (Q8TEW8 196-299, limits assumed, looked up): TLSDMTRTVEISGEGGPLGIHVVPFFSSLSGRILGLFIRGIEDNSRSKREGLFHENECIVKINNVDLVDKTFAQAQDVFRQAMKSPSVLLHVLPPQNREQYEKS

ARHGEF12, Q9NZN5-2 = target: ARHGEF12, Q9NZN5-2
ARHGEF12, Q9NZN5-2, sequence (Q9NZN5 other isoform, or with tags, fused parts or gaps): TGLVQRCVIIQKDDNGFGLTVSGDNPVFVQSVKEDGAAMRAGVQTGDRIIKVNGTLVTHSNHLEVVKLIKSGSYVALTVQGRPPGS

ARHGAP21, Q5T5U3 = target: T8, ARHGAP21, Q5T5U3
T8 sequence (Q5T5U3 45-169, limits assumed, looked up): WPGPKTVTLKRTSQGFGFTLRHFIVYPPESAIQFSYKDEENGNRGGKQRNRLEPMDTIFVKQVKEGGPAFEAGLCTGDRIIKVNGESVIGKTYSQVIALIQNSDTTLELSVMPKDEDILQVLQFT

MAGI2_5, Q86UL8 = target: MAGI2_5, Q86UL8
MAGI2_5, Q86UL8, sequence (Q86UL8 915-1017): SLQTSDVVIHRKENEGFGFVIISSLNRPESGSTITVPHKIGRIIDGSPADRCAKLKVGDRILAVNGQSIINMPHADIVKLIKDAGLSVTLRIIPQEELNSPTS

PDZRN3_1, Q9UPQ7 = target: T9, PDZRN3_1, Q9UPQ7
T9 sequence (Q9UPQ7 244-349, limits assumed, looked up): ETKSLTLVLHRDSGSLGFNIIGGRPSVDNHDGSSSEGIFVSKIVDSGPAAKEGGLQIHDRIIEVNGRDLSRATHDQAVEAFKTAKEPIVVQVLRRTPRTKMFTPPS

[1] = plain residues with an end cap or a label only (N-terminal biotin on a linker: ado-ado)
[2] = modified: phospho on T at position -2 from the C-terminal residue

DLG2_2, Q15700, sequence (Q15700 189-283): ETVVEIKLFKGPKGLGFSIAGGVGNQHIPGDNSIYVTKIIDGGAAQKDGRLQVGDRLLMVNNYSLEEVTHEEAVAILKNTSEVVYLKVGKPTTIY
PTPN3, P26045, sequence (P26045 505-587): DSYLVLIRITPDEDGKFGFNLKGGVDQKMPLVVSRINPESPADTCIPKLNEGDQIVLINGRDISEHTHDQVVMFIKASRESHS
Inadl_3, Q8NI35, sequence (Q8NI35 359-469): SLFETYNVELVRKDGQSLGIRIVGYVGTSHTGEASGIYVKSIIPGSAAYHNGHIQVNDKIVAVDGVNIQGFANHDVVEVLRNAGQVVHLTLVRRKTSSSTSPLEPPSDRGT

In the case of AQRARSPSDV [GPR12, P47775], the pKd (DLG2_2, Q15700; [1]) is reported as 3.49, the pKd (PTPN3, P26045; [1]) is reported as 3.98 and the pKd (RADIL, Q96JH8; [1]) is reported as “below the threshold”. For the same binder, the pKd (Inadl_3, Q8NI35; [1]) was “below the threshold”, the pKd (Inadl_8, Q8NI35; [1]) was 4.6 and the pKd (GRIP2_6, Q9C0E4; [1]) was “below the threshold”. For the same binder, the pKd (SCRIB_1, Q14160; [1]) was “below the threshold”, the pKd (LIMK2, P53671; [1]) was “below the threshold” and the pKd (MAGI2_6, Q86UL8; [1]) was “below the threshold”. The pKd (NHERF4_1, Q86UT5-2; [1]) was “below the threshold”, the pKd (SNX27, Q96L92; [1]) was “below the threshold” and the pKd (DLG4_1, P78352; [1]) was “below the threshold”. For the same binder, the pKd (GIPC2, Q8TF65; [1]) was “below the threshold”, the pKd (FRMPD1, Q5SYB0; [1]) was “below the threshold” and the pKd (MAGI1_1, Q96QZ7; [1]) was 3.67. The pKd (LIN7A, O14910; [1]) was “below the threshold”, the pKd (FRMPD3, Q5JV73; [1]) was “below the threshold” and the pKd (CARD11, Q9BXL7; [1]) was “below the threshold”. The pKd (LNX2_3, Q8N448; [1]) was “below the threshold”, the pKd (Inadl_10, Q8NI35; [1]) was “below the threshold” and the pKd (MAST2, Q6P0Q8; [1]) was “below the threshold”. The pKd (LDB3, O75112; [1]) was “below the threshold”, the pKd (MPP2, Q14168; [1]) was “below the threshold” and the pKd (GRASP, Q7Z6J2; [1]) was “below the threshold”. The pKd (PARD3B_1, Q8TEW8; [1]) was “below the threshold”, the pKd (ARHGEF12, Q9NZN5-2; [1]) was “below the threshold” and the pKd (ARHGAP21, Q5T5U3; [1]) was “below the threshold”. The pKd (MAGI2_5, Q86UL8; [1]) was “below the threshold” and the pKd (PDZRN3_1, Q9UPQ7; [1]) was “below the threshold”.

PYSESDDDWC [CACNA1A, O00555] was tested, and the pKd (DLG2_2, Q15700; [1]) was “below the threshold”, the pKd (PTPN3, P26045; [1]) was 4.15 and the pKd (RADIL, Q96JH8; [1]) was “below the threshold”. For the same binder, the pKd (Inadl_3, Q8NI35; [1]) was “below the threshold”, the pKd (Inadl_8, Q8NI35; [1]) was “below the threshold” and the pKd (GRIP2_6, Q9C0E4; [1]) was “below the threshold”. The pKd (SCRIB_1, Q14160; [1]) was “below the threshold”, the pKd (LIMK2, P53671; [1]) was “below the threshold” and the pKd (MAGI2_6, Q86UL8; [1]) was 4.17. The pKd (NHERF4_1, Q86UT5-2; [1]) was 4.01, the pKd (SNX27, Q96L92; [1]) was 4.09 and the pKd (DLG4_1, P78352; [1]) was “below the threshold”. The pKd (GIPC2, Q8TF65; [1]) was “below the threshold”, the pKd (FRMPD1, Q5SYB0; [1]) was “below the threshold” and the pKd (MAGI1_1, Q96QZ7; [1]) was “below the threshold”. For the same binder, the pKd (LIN7A, O14910; [1]) was “below the threshold”, the pKd (FRMPD3, Q5JV73; [1]) was 3.48 and the pKd (CARD11, Q9BXL7; [1]) was “below the threshold”. For the same binder, the pKd (LNX2_3, Q8N448; [1]) was “below the threshold”, the pKd (Inadl_10, Q8NI35; [1]) was “below the threshold” and the pKd (MAST2, Q6P0Q8; [1]) was “below the threshold”. The pKd (LDB3, O75112; [1]) was “below the threshold”, the pKd (MPP2, Q14168; [1]) was “below the threshold” and the pKd (GRASP, Q7Z6J2; [1]) was “below the threshold”. The pKd (PARD3B_1, Q8TEW8; [1]) was 3.61, the pKd (ARHGEF12, Q9NZN5-2; [1]) was “below the threshold” and the pKd (ARHGAP21, Q5T5U3; [1]) was 4.17. The pKd (MAGI2_5, Q86UL8; [1]) was “below the threshold” and the pKd (PDZRN3_1, Q9UPQ7; [1]) was “below the threshold”.

SSRTRRETQL [HPV16-E6_-2P, P03126] was tested, and the pKd (DLG2_2, Q15700; [2]) was “below the threshold”, the pKd (PTPN3, P26045; [2]) was 3.92 and the pKd (RADIL, Q96JH8; [2]) was “below the threshold”. The pKd (Inadl_3, Q8NI35; [2]) was “below the threshold”, the pKd (Inadl_8, Q8NI35; [2]) was “below the threshold” and the pKd (GRIP2_6, Q9C0E4; [2]) was “below the threshold”. The pKd (SCRIB_1, Q14160; [2]) was “below the threshold”, the pKd (LIMK2, P53671; [2]) was “below the threshold” and the pKd (MAGI2_6, Q86UL8; [2]) was “below the threshold”. The pKd (NHERF4_1, Q86UT5-2; [2]) was 4.37, the pKd (SNX27, Q96L92; [2]) was “below the threshold” and the pKd (DLG4_1, P78352; [2]) was “below the threshold”. For the same binder, the pKd (GIPC2, Q8TF65; [2]) was “below the threshold”, the pKd (FRMPD1, Q5SYB0; [2]) was “below the threshold” and the pKd (MAGI1_1, Q96QZ7; [2]) was “below the threshold”. The pKd (LIN7A, O14910; [2]) was “below the threshold”, the pKd (FRMPD3, Q5JV73; [2]) was “below the threshold” and the pKd (CARD11, Q9BXL7; [2]) was “below the threshold”. For the same binder, the pKd (LNX2_3, Q8N448; [2]) was “below the threshold”, the pKd (Inadl_10, Q8NI35; [2]) was “below the threshold” and the pKd (MAST2, Q6P0Q8; [2]) was 3.79. For the same binder, the pKd (LDB3, O75112; [2]) was “below the threshold”, the pKd (MPP2, Q14168; [2]) was “below the threshold” and the pKd (GRASP, Q7Z6J2; [2]) was “below the threshold”. The pKd (PARD3B_1, Q8TEW8; [2]) was “below the threshold”, the pKd (ARHGEF12, Q9NZN5-2; [2]) was “below the threshold” and the pKd (ARHGAP21, Q5T5U3; [2]) was 4.05. The pKd (MAGI2_5, Q86UL8; [2]) was “below the threshold” and the pKd (PDZRN3_1, Q9UPQ7; [2]) was “below the threshold”.
